For the data set, the target named is FUS (recombinant, His-tagged) (human, UniProt P35637 1-526). Kind of data set: EMSA; 250 nM RNA, 0-7.5 uM FUS (Methods: 7.0); EMSA: 50 mM Tris-HCl pH 7.5, 100 mM KCl, 2 mM MgCl2, 100 mM beta-mercaptoethanol, 0.1 mg/ml BSA, 30 min RT, 6% native gel in TBE; CONA: lysate in 1% Triton X-100/PBS, beads washed in 20 mM Hepes pH 7.5, 0.3 M NaCl, 0.01% Triton X-100, 5 mM MgCl2, 2 h RT. The following applies: protein: recombinant; tags: His; label: 5' Cy5; 3' biotin-TEG. Background: Mobility shift assays separate free from complexed probe on a gel.
Sequence of FUS (recombinant, His-tagged) (P35637 whole entry): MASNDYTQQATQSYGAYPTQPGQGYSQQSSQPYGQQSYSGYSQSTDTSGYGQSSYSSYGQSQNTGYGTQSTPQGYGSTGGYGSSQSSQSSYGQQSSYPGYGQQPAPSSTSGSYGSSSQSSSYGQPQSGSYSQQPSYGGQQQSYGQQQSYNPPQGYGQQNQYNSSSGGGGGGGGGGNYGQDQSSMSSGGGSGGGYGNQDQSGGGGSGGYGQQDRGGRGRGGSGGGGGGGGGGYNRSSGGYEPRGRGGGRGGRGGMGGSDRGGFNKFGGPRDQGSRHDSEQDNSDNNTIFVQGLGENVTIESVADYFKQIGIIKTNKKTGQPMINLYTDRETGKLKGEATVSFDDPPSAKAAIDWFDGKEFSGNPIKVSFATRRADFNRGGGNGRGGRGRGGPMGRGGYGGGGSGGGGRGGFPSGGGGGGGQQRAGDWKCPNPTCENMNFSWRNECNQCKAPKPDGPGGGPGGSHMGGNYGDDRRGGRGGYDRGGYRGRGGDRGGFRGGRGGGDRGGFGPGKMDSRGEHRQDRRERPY

As to GGACUCGGACUUGGACUCUGGACUUUG (ssRNA) [4xDRACH], the binding result was “binds”.

The values above are taken from PMC12285722, “M6A-dependent RNA condensation underlies FUS autoregulation and can be harnessed for ALS therapy development”.
